For one molecule, Kd and koff results are on record in article PMC5856381 (2018).

Bounds are passed on as bounds.

The target in assay [1] is T1, hemoglobin (Hb), human, cell-free (human, UniProt P69905 1-142; P68871 1-147). Briefly: SPR. A general note: SPR reads the build-up and loss of mass on a sensor chip optically.
In assay [2] the target is T1, hemoglobin (Hb), human, cell-free. Briefly: SPR. The source holds these as a separate data set.

T1 sequence (P69905 whole entry, chain 1 of 2): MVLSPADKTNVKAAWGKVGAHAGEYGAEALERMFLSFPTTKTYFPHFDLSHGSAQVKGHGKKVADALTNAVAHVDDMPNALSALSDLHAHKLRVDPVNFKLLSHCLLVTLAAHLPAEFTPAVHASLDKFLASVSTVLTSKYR
T1 sequence (P68871 whole entry, chain 2 of 2): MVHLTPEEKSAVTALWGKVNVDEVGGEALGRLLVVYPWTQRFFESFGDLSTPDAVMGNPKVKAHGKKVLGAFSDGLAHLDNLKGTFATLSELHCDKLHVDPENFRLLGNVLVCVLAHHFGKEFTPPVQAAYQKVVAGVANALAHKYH

B1: recombinant haptoglobin Hp1F, C1r-LP processed (natural protein)
chain 1: VDSGNDVTDIADDGCPKPPEIAHGYVEHSVRYQCKNYYKLRTEGDGVYTLNDKKQWINKAVGDKLPECEAVCGKPKNPANPVQ
chain 2: ILGGHLDAKGSFPWQAKMVSHHNLTTGATLINEQWLLTTAKNLFLNHSENATAKDIAPTLTLYVGKKQLVEIEKVVLHPNYSQVDIGLIKLKQKVSVNERVMPICLPSKDYAEVGRVGYVSGWGRNANFKFTDHLKYVMLPVADQDQCIRHYEGSTVPEKKTPKSPVGVQPILNEHTFCAGMSKYQEDTCYGDAGSAFAVHDLEEDTWYATGILSFDKSCAVAEYGVYVKVTSIQDWVQKTIAEN
modifications: Hp1F built from the first (F) repeat of Hp2FS (mature Asp52/Lys53 = precursor D70/K71); C1r-LP cleaves after R161 (Arg omitted from alpha chain per UniProt convention); alpha-beta and inter-alpha disulfides; N-glycosylated; C-terminal 8xHis tag omitted
Take B1: in assay [1], the Kd is less than 0.042 nM. Further, the off-rate (koff) in assay [2] was less than 5e-05 s⁻¹.

The term Kd denotes the equilibrium constant for the complex coming apart. Low readings indicate a tighter complex, high ones a looser complex. Usually koff stands for the first-order rate constant of dissociation. The low end stands for slow dissociation, the high end for fast dissociation.
